From the supplement of paper PMC10126150
± gives the standard deviation of the averaged measurements.

Tested on: ATP
Assay: switch fluorescence ratio, 500 uM ATP over buffer (Cy3 cluster intensity, sum of 5 cycles each) (fold (ratio)); higher = stronger signal-on switching upon ATP binding; sequences stand for … in TCGTCGGCAGCGTCAGATGTGTATAAGAGACAGTTTTTTTTTTTTTTTTTTTTTTTTT…TC
Conditions: aptamer strand: ATP DNA aptamer (quencher-CACCTGGGGGAGTATTGCGGAGGAAGG + anchor), 100 nM annealed; ATP concentration: 500 uM
Outline: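 Imaging in selection buffer was followed by imaging after 15 min with 500 uM ATP at 22 °C, for Cy3-labelled switching-strand clusters annealed to 100 nM quencher-labelled ATP aptamer on a modified Illumina MiSeq flow-cell. Five of these buffer/ATP cycles ran, separated by NaOH stripping and re-annealing. The fluorescence ratio per cluster is summed target-cycle over summed buffer-cycle Cy3 intensity, averaged per switch-domain sequence; clusters outside 100-1000 RFU were removed.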
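Also: ATP exposure 15 min at 22 °C before imaging.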

Sequence | switch fluorescence ratio
ATGTAAATTT | 1.01 ± 0.005
ATGTACCGCG | 1.06 ± 0.016
ATGTACGCGT | 0.995 ± 0.024
ATGTAGTGGC | 0.995 ± 0.049
ATGTATAAAG | 0.987 ± 0.03
ATGTATAGAG | 1.03 ± 0.026
ATGTATAGTT | 1.02 ± 0.017
ATGTATCATA | 0.993 ± 0.025
ATGTATGGGT | 0.992 ± 0.036
ATGTATTCGA | 0.996 ± 0.027
ATGTATTCGC | 0.983 ± 0.014
ATGTATTGGT | 0.991 ± 0.026
ATGTCAAAAG | 1 ± 0.022
ATGTCAAGGA | 0.985 ± 0.042
ATGTCAGTGT | 0.985 ± 0.074
ATGTCCACTT | 1 ± 0.036
ATGTCCTTAT | 0.988 ± 0.029
ATGTCTTTGA | 1.03 ± 0.038
ATGTGAATTG | 1.01 ± 0.019
ATGTGAGCGG | 1.01 ± 0.038
ATGTGCAGGG | 1.03 ± 0.013
ATGTGGAGGG | 0.983 ± 0.033
ATGTGGCTGA | 1.021 ± 0.0038
ATGTGGGAGG | 1 ± 0.016
ATGTGGGAGT | 0.979 ± 0.034

Sequence | switch fluorescence ratio
ATGTGGGATA | 1.01 ± 0.063
ATGTGGGATT | 0.965 ± 0.013
ATGTGGGGCC | 0.995 ± 0.042
ATGTGGTATG | 0.984 ± 0.031
ATGTGTGAAT | 0.997 ± 0.015
ATGTGTGGCT | 1.01 ± 0.022
ATGTGTGTAT | 1.12 ± 0.2
ATGTGTTAGC | 0.999 ± 0.058
ATGTTACCGG | 1.054 ± 0.0038
ATGTTACGTT | 1.02 ± 0.021
ATGTTAGGAA | 1 ± 0.0065
ATGTTATTGC | 1 ± 0.022
ATGTTATTTG | 0.963 ± 0.022
ATGTTATTTT | 1.013 ± 0.0049
ATGTTGAAGC | 0.9619 ± 0.0078
ATGTTGATCT | 0.983 ± 0.024
ATGTTGGGCA | 1.01 ± 0.028
ATGTTGGTAT | 1 ± 0.022
ATGTTGTCGA | 1.01 ± 0.031
ATGTTGTTGT | 0.981 ± 0.033
ATGTTTAGAA | 0.9607 ± 0.0073
ATGTTTTACG | 0.988 ± 0.049
ATGTTTTAGA | 0.95 ± 0.015
ATGTTTTGCT | 0.965 ± 0.029
ATGTTTTTTT | 0.9915 ± 0.0073

Sequence | switch fluorescence ratio
ATTAAACCGG | 0.997 ± 0.024
ATTAAAGCGT | 1 ± 0.016
ATTAAAGGAT | 0.995 ± 0.033
ATTAAAGGGA | 1 ± 0.037
ATTAAAGGGC | 0.992 ± 0.013
ATTAAATAG | 0.9803 ± 0.0081
ATTAAATTAG | 1.04 ± 0.051
ATTAAGACAG | 0.973 ± 0.032
ATTAAGGAGG | 0.99014 ± 0.00011
ATTAAGGGTG | 1.04 ± 0.093
ATTAAGGTAG | 1 ± 0.014
ATTAAGGTCA | 1.064 ± 0.0069
ATTAAGTGTG | 0.99638 ± 0.00091
ATTAATATGT | 0.999 ± 0.023
ATTAATCGAC | 1.03 ± 0.092
ATTAATCTGA | 0.96 ± 0.029
ATTAATTATC | 0.993 ± 0.031
ATTAATTGTT | 0.993 ± 0.012
ATTACAGGAC | 1.08 ± 0.012
ATTACCGGGG | 1.05 ± 0.035
ATTACGGGGG | 1.01 ± 0.088
ATTACGTCCT | 1.03 ± 0.036
ATTACTAAAT | 1.01 ± 0.02
ATTACTAGGA | 1 ± 0.057
ATTACTGGGG | 0.99 ± 0.019

Sequence | switch fluorescence ratio
ATTAGAAATG | 0.9973 ± 0.0062
ATTAGACTTG | 1.01 ± 0.065
ATTAGCAGGC | 1.11 ± 0.012
ATTAGCGTTT | 0.977 ± 0.066
ATTAGGGGGG | 0.998 ± 0.012
ATTAGGGGGT | 0.988 ± 0.036
ATTAGGGTAA | 1.02 ± 0.026
ATTAGGTATA | 0.9712 ± 0.0036
ATTAGGTTCT | 0.97 ± 0.051
ATTAGGTTGG | 0.987 ± 0.027
ATTAGTAAAG | 0.9972 ± 0.0073
ATTAGTCAAT | 1.0167 ± 0.0006
ATTAGTGAGC | 1.03 ± 0.051
ATTAGTGGCA | 0.982 ± 0.013
ATTAGTTATT | 1.02 ± 0.015
ATTAGTTTGA | 0.985 ± 0.014
ATTATAAAGC | 1.03 ± 0.063
ATTATATTGC | 1.01 ± 0.026
ATTATCACGA | 0.989 ± 0.014
ATTATCCGCT | 1.15 ± 0.014
ATTATGCTG | 0.98 ± 0.05
ATTATGCTGG | 0.994 ± 0.026
ATTATGGGAT | 0.996 ± 0.029
ATTATGGGGA | 0.995 ± 0.016
ATTATGGTCA | 0.994 ± 0.023

Sequence | switch fluorescence ratio
ATTATGTTGT | 0.981 ± 0.028
ATTATTAACG | 0.993 ± 0.033
ATTATTCGGT | 0.986 ± 0.013
ATTATTGAGA | 1.036 ± 0.004
ATTATTGGTA | 0.987 ± 0.012
ATTATTGGTC | 0.99 ± 0.029
ATTATTTGCC | 0.99 ± 0.01
ATTCAATTTT | 0.996 ± 0.051
ATTCACCGCG | 1.155 ± 0.0057
ATTCACGGCC | 1.06 ± 0.043
ATTCAGAAGG | 1.01 ± 0.041
ATTCAGCATT | 1.05 ± 0.02
ATTCATCGTA | 1.0012 ± 0.0006
ATTCATGGGT | 0.998 ± 0.024
ATTCATTTTT | 1.004 ± 0.01
ATTCCTAGAT | 1.002 ± 0.0091
ATTCCTAGTG | 1.03 ± 0.035
ATTCCTTGTA | 0.989 ± 0.039
ATTCGACAGA | 1.02 ± 0.016
ATTCGATAGT | 1.03 ± 0.018
ATTCGATATC | 1.03 ± 0.012
ATTCGATTTC | 1 ± 0.033
ATTCGCGGAA | 1.02 ± 0.029
ATTCGTGTAT | 0.977 ± 0.04
ATTCTACCGC | 1.49 ± 0.08

Sequence | switch fluorescence ratio
ATTCTGGGAT | 1.013 ± 0.0027
ATTCTGTGTG | 0.9648 ± 0.0023
ATTCTGTTTG | 0.987 ± 0.043
ATTCTTAGTA | 0.986 ± 0.03
ATTCTTCCGC | 3.88 ± 0.16
ATTGAAAAAC | 1.03 ± 0.022
ATTGAAAGCA | 1.03 ± 0.025
ATTGAAAGTG | 0.9859 ± 0.0074
ATTGAAATGG | 1.02 ± 0.044
ATTGAATGGC | 1.04 ± 0.068
ATTGAATGTA | 0.98 ± 0.016
ATTGAATTCT | 1.02 ± 0.14
ATTGACTCAG | 1.01 ± 0.012
ATTGAGAGCA | 0.985 ± 0.021
ATTGAGCAAA | 1.11 ± 0.056
ATTGAGCGGA | 1.0358 ± 0.001
ATTGAGCGTG | 1.01 ± 0.015
ATTGAGTCAC | 0.991 ± 0.016
ATTGAGTTGT | 0.947 ± 0.066
ATTGATAGGG | 1.03 ± 0.037
ATTGATATTG | 0.979 ± 0.011
ATTGATGTA | 1.0136 ± 0.00015
ATTGATTGAA | 1.01 ± 0.012
ATTGATTTAT | 0.987 ± 0.045
ATTGATTTGT | 0.975 ± 0.018

Sequence | switch fluorescence ratio
ATTGATTTTC | 0.999 ± 0.024
ATTGCCCTTA | 1.06 ± 0.071
ATTGCGCTTC | 1.063 ± 0.0095
ATTGCGGCAC | 1.05 ± 0.024
ATTGCGGGGG | 0.994 ± 0.019
ATTGCGGGTT | 0.981 ± 0.013
ATTGGACCAT | 0.976 ± 0.036
ATTGGAGGGC | 0.96 ± 0.038
ATTGGATGGG | 0.997 ± 0.057
ATTGGATTTT | 1 ± 0.028
ATTGGCACT | 1.03 ± 0.018
ATTGGCGGTT | 1.09 ± 0.1
ATTGGCTTT | 0.9788 ± 0.0025
ATTGGCTTTA | 1.004 ± 0.0034
ATTGGGAAAG | 1.02 ± 0.041
ATTGGGCACC | 0.998 ± 0.048
ATTGGGCGCT | 0.99269 ± 2.5e-05
ATTGGGCTTC | 1.01 ± 0.015
ATTGGGGCGG | 0.9842 ± 0.0054
ATTGGGGGGT | 0.988 ± 0.015
ATTGGGGTGC | 0.992 ± 0.013
ATTGGGTATG | 0.998 ± 0.044
ATTGGGTTAG | 0.975 ± 0.032
ATTGGGTTTC | 0.982 ± 0.021
ATTGGGTTTG | 1.01 ± 0.021

Sequence | switch fluorescence ratio
ATTGGTAACC | 1.01 ± 0.039
ATTGGTATGA | 0.994 ± 0.018
ATTGGTGACG | 1.02 ± 0.047
ATTGGTGATT | 0.974 ± 0.038
ATTGGTGGAG | 1.007 ± 0.0033
ATTGTAAGTG | 1.03 ± 0.088
ATTGTACAGG | 1.033 ± 0.0021
ATTGTAGACC | 1.0225 ± 0.00081
ATTGTAGTGC | 0.97 ± 0.021
ATTGTATAAA | 1.04 ± 0.056
ATTGTATTTA | 0.9842 ± 0.0079
ATTGTCATGG | 0.999 ± 0.028
ATTGTCGCCG | 1.02 ± 0.043
ATTGTCGTTC | 1.027 ± 0.0098
ATTGTCTTGA | 0.9688 ± 0.0015
ATTGTGAGAC | 0.986 ± 0.01
ATTGTGCTGA | 0.9481 ± 0.0073
ATTGTGCTGT | 0.976 ± 0.043
ATTGTGGATA | 0.95 ± 0.022
ATTGTGGGAA | 0.9843 ± 0.0028
ATTGTGGGAG | 0.972 ± 0.017
ATTGTGGGTT | 1 ± 0.021
ATTGTGTGGT | 1.01 ± 0.026
ATTGTTCTGA | 1.01 ± 0.032
ATTGTTGTTA | 0.98517 ± 0.00068
